Among the data in patent publication US20260274952A1 are MFI (fluorescence intensity) values, retold here.

For this assay, the target named is T cell surface antigens CTLA4 and PD-1. Put plainly: flow cytometry, PHA-stimulated CD4+ T cells, antibody 100 nM (PBS 8.39). On the technique in general: A flow cytometer gives signals particle by particle.

Take hIgG (control) (antibody): the MFI (fluorescence intensity) worked out at 10.2.
